In patent US20110281938, “APTAMERS TO TISSUE FACTOR PATHWAY INHIBITOR AND THEIR USE AS BLEEDING DISORDER THERAPEUTICS” (Baxter Healthcare S.A., published 2011):

biological target: T1, TFPI (tissue factor pathway inhibitor, full-length) (Homo sapiens, UniProt P10646 SEQ:1-276); experiment: competition; dot-blot; settings: tags: American Diagnostica 4500PC/4900PC, E. coli expressed
Experimental: Each molecule was evaluated for binding to tissue factor pathway inhibitor (TFPI) in a binding-competition assay. For these experiments, 10 nM human TFPI (American Diagnostica, Stamford, Conn., catalog #4500PC) was incubated with trace amounts of radiolabeled ARC17480 and 5000 nM, 1666.67 nM, 555.56 nM, 185.19 nM, 61.73 nM, 20.58 nM, 6.86 nM, 2.29 nM, 0.76 nM or 0.25 nM of unlabeled competitor aptamer. ARC17480 was included as a competitor in every experiment as a control. For each molecule, the percentage of radiolabeled ARC17480 bound at each competitor aptamer concentration was used for analysis. The percentage of radiolabeled ARC17480 bound was plotted as a function of aptamer concentration and fit to the equation y=(max/(1+x/IC₅₀))+int, where y=the percentage of radiolabeled ARC17480 bound, x=the concentration of aptamer, max=the maximum radiolabeled ARC17480 bound, and int=the y-intercept, to generate an IC₅₀ value for binding-competition. The IC₅₀ of each aptamer was compared to the IC₅₀ of ARC17480 that was evaluated in the same experiment. A substitution was considered tolerated in the binding-competition assay if the IC₅₀ of that molecule was not more than 5-fold greater than that of ARC17480 evaluated in the same experiment. Tolerated substitutions are indicated in Table 37 as meeting the assay criteria (“yes”) or not meeting the assay criteria (“no”).

T1 sequence (P10646 29-304): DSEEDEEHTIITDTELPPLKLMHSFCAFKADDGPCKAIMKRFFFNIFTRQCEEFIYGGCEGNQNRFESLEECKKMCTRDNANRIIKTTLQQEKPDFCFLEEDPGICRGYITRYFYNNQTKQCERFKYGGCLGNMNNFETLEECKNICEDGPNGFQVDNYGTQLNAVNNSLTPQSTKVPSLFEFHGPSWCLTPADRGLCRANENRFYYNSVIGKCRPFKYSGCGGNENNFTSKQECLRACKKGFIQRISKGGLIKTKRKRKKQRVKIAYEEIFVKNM

Binder | binding signal [fold IC50 vs ARC17480]
GGAAUAUACUUGGCUCGUUAGGUGCGUAUAUA (XNA, 2'-OMe except dC9, dC14, dC16, dC25 and dU18; 3' idT) [ARC33872] | ≤ 5
GGAAUAUACUUGGCUCGUUAGGUGCGUAUAUA (XNA, 2'-OMe except dC9, dC14, dC16, dC25 and dU19; 3' idT) [ARC33873] | ≤ 5
GGAAUAUACUUGGCUCGUUAGGUGCGUAUAUA (XNA, 2'-OMe except dC9, dC14, dC16, dC25 and dU23; 3' idT) [ARC33874] | ≤ 5
GGAAUAUACUUGGCUCGUUAGGUGCGUAUAUA (XNA, 2'-OMe except dC9, dC14, dC16, dC25 and dU27; 3' idT) [ARC33875] | ≤ 5
GGAAUAUACUUGGCUCGUUAGGUGCGUAUAUA (XNA, 2'-OMe except dC9, dC14, dC25; 2'-F C16; 3' idT) [ARC19495] | ≤ 5
GGAAUAUACUUGGCUCGUUAGGUGCGUAUAUA (XNA, 2'-OMe except dC9, dC14, dC16, dC25 and dU29; 3' idT) [ARC33876] | ≤ 5
GGAAUAUACUUGGCUCGUUAGGUGCGUAUAUA (XNA, 2'-OMe except dC9, dC14, dC16, dC25 and dU31; 3' idT) [ARC33877] | ≤ 5
GGAAUAUACUUGGCUCGUUAGGUGCGUAUAUA (XNA, 2'-OMe except dC9, dC14, dC16; 2'-F C25; 3' idT) [ARC19496] | ≤ 5
GGAAUAUACUUGGCUCGUUAGGUGCGUAUAUA (XNA, 2'-OMe except dC9, dC14, dC16, dC25 and dG1; 3' idT) [ARC19448] | ≤ 5
GGAAUAUACUUGGCUCGUUAGGUGCGUAUAUA (XNA, 2'-OMe except dC9, dC14, dC16, dC25 and dG2; 3' idT) [ARC19449] | ≤ 5
GGAAUAUACUUGGCUCGUUAGGUGCGUAUAUA (XNA, 2'-OMe except dC9, dC14, dC16, dC25 and dA3; 3' idT) [ARC19450] | ≤ 5
GGAAUAUACUUGGCUCGUUAGGUGCGUAUAUA (XNA, 2'-OMe except dC9, dC14, dC16, dC25 and dA4; 3' idT) [ARC19451] | ≤ 5

biological target: T1, TFPI (tissue factor pathway inhibitor, …); experiment: competition; fails binding-competition criterion; settings: tags: American Diagnostica 4500PC/4900PC, E. coli expressed
Experimental: Each molecule was evaluated for binding to tissue factor pathway inhibitor (TFPI) in a binding-competition assay. For these experiments, 10 nM human TFPI (American Diagnostica, Stamford, Conn., catalog #4500PC) was incubated with trace amounts of radiolabeled ARC17480 and 5000 nM, 1666.67 nM, 555.56 nM, 185.19 nM, 61.73 nM, 20.58 nM, 6.86 nM, 2.29 nM, 0.76 nM or 0.25 nM of unlabeled competitor aptamer. ARC17480 was included as a competitor in every experiment as a control. For each molecule, the percentage of radiolabeled ARC17480 bound at each competitor aptamer concentration was used for analysis. The percentage of radiolabeled ARC17480 bound was plotted as a function of aptamer concentration and fit to the equation y=(max/(1+x/IC₅₀))+int, where y=the percentage of radiolabeled ARC17480 bound, x=the concentration of aptamer, max=the maximum radiolabeled ARC17480 bound, and int=the y-intercept, to generate an IC₅₀ value for binding-competition. The IC₅₀ of each aptamer was compared to the IC₅₀ of ARC17480 that was evaluated in the same experiment. A substitution was considered tolerated in the binding-competition assay if the IC₅₀ of that molecule was not more than 5-fold greater than that of ARC17480 evaluated in the same experiment. Tolerated substitutions are indicated in Table 38 as meeting the assay criteria (“yes”) or not meeting the assay criteria (“no”).

Binder | binding signal
GGAAUAACUUGGCUCGUUAGGUGCGUAUAUA (mixed, 2'-OMe A/G/U, 2'-deoxy C, 3' idT) [ARC33123] | > 5 fold IC50 of ARC17480
GGAAUAUCUUGGCUCGUUAGGUGCGUAUAUA (mixed, 2'-OMe A/G/U, 2'-deoxy C, 3' idT) [ARC33124] | > 5 fold IC50 of ARC17480
GGAAUAUAUUGGCUCGUUAGGUGCGUAUAUA (mixed, 2'-OMe A/G/U, 2'-deoxy C, 3' idT) [ARC33125] | > 5 fold IC50 of ARC17480
GGAAUAUACUGGCUCGUUAGGUGCGUAUAUA (mixed, 2'-OMe A/G/U, 2'-deoxy C, 3' idT) [ARC33126] | > 5 fold IC50 of ARC17480
GGAAUAUACUUGCUCGUUAGGUGCGUAUAUA (mixed, 2'-OMe A/G/U, 2'-deoxy C, 3' idT) [ARC33127] | > 5 fold IC50 of ARC17480
GGAAUAUACUUGGUCGUUAGGUGCGUAUAUA (mixed, 2'-OMe A/G/U, 2'-deoxy C, 3' idT) [ARC33128] | > 5 fold IC50 of ARC17480
GGAAUAUACUUGGCCGUUAGGUGCGUAUAUA (mixed, 2'-OMe A/G/U, 2'-deoxy C, 3' idT) [ARC33129] | > 5 fold IC50 of ARC17480
GGAAUAUACUUGGCUGUUAGGUGCGUAUAUA (mixed, 2'-OMe A/G/U, 2'-deoxy C, 3' idT) [ARC33130] | > 5 fold IC50 of ARC17480
GGAAUAUACUUGGCUCUUAGGUGCGUAUAUA (mixed, 2'-OMe A/G/U, 2'-deoxy C, 3' idT) [ARC33131] | > 5 fold IC50 of ARC17480
GGAAUAUACUUGGCUCGUUGGUGCGUAUAUA (mixed, 2'-OMe A/G/U, 2'-deoxy C, 3' idT) [ARC33133] | > 5 fold IC50 of ARC17480
GGAAUAUACUUGGCUCGUUAGUGCGUAUAUA (mixed, 2'-OMe A/G/U, 2'-deoxy C, 3' idT) [ARC33134] | > 5 fold IC50 of ARC17480
GGAAUAUACUUGGCUCGUUAGGGCGUAUAUA (mixed, 2'-OMe A/G/U, 2'-deoxy C, 3' idT) [ARC33135] | > 5 fold IC50 of ARC17480
GGAAUAUACUUGGCUCGUUAGGUCGUAUAUA (mixed, 2'-OMe A/G/U, 2'-deoxy C, 3' idT) [ARC33136] | > 5 fold IC50 of ARC17480
GGAAUAUACUUGGCUCGUUAGGUGGUAUAUA (mixed, 2'-OMe A/G/U, 2'-deoxy C, 3' idT) [ARC33137] | > 5 fold IC50 of ARC17480
GGAAUAUACUUGGCUCGUUAGGUGCUAUAUA (mixed, 2'-OMe A/G/U, 2'-deoxy C, 3' idT) [ARC33138] | > 5 fold IC50 of ARC17480
GGAAUAUACUUGGCUCGUUAGGUGCGAUAUA (mixed, 2'-OMe A/G/U, 2'-deoxy C, 3' idT) [ARC33139] | > 5 fold IC50 of ARC17480
GGAAUAUACUUGGCUCGUUAGGUGCGUUAUA (mixed, 2'-OMe A/G/U, 2'-deoxy C, 3' idT) [ARC33140] | > 5 fold IC50 of ARC17480
GGAAUAUACGGCUCGUUAGGUGCGUAUAUA (mixed, 2'-OMe A/G/U, 2'-deoxy C, 3' idT) [ARC33145] | > 5 fold IC50 of ARC17480
GGAAUAUACUUCUCGUUAGGUGCGUAUAUA (mixed, 2'-OMe A/G/U, 2'-deoxy C, 3' idT) [ARC33146] | > 5 fold IC50 of ARC17480
GGAAUAUACUUGGCUCGAGGUGCGUAUAUA (mixed, 2'-OMe A/G/U, 2'-deoxy C, 3' idT) [ARC33147] | > 5 fold IC50 of ARC17480
GGAAUAUACUUGGCUCGUUAUGCGUAUAUA (mixed, 2'-OMe A/G/U, 2'-deoxy C, 3' idT) [ARC33148] | > 5 fold IC50 of ARC17480

biological target: T1, TFPI (tissue factor pathway inhibitor, …); experiment: competition; fails binding-competition criterion; settings: tags: American Diagnostica 4500PC/4900PC, E. coli expressed; remark: another data set of the same source
Experimental: The substituted ARC17480 molecules were assayed for binding and function. The assays used for this evaluation were the calibrated automated thrombogram (CAT) assay, a dot-blot binding-competition assay and a FXa activity assay. The results of these assays are summarized in Table 40 and depicted in FIG. 147. A mutation was considered tolerated for activity if it met the criteria of at least two of the three assays that were carried out. Mutations that are tolerated (“yes”) and not tolerated (“no”) are identified in Table 40. The experimental details and the criteria used for each assay are described in the following paragraphs. The molecules described in this example were first tested in the CAT assay and the dot-blot binding-competition assay. In most cases, molecules were only tested in the FXa assay if there was a discrepancy between the results in the CAT assay and the dot-blot binding-competition assay.
Each molecule was evaluated for binding to tissue factor pathway inhibitor (TFPI) in a binding-competition assay. For these experiments, 10 nM human TFPI (American Diagnostica, Stamford, Conn., catalog #4900PC) was incubated with trace amounts of radiolabeled ARC17480 and 5000 nM, 1666.67 nM, 555.56 nM, 185.19 nM, 61.73 nM, 20.58 nM, 6.86 nM, 2.29 nM, 0.76 nM or 0.25 nM of unlabeled competitor aptamer. ARC17480 was included as a competitor in every experiment as a control. For each molecule, the percentage of radiolabeled ARC17480 bound at each competitor aptamer concentration was used for analysis. The percentage of radiolabeled ARC17480 bound was plotted as a function of aptamer concentration and fit to the equation y=(max/(1+x/IC₅₀))+int, where y=the percentage of radiolabeled ARC17480 bound, x=the concentration of aptamer, max=the maximum radiolabeled ARC17480 bound, and int=the y-intercept, to generate an IC₅₀ value for binding-competition. The IC₅₀ of each aptamer was compared to the IC₅₀ of ARC17480 that was evaluated in the same experiment. A mutation was considered tolerated in the binding-competition assay if the IC₅₀ of that molecule was not more than 5-fold greater than that of ARC17480 evaluated in the same experiment. Tolerated mutations are indicated in Table 40 as meeting the assay criteria (“yes”) or not meeting the assay criteria (“no”).

Binder | binding signal
GGAAUAUACUUGGCUTGUUAGGUGCGUAUAUA (mixed, 2'-OMe A/G/U, dT16, 2'-deoxy C, 3' idT) [ARC33164] | > 5 fold IC50 of ARC17480
GGAAUAUACUUGGCUCUUUAGGUGCGUAUAUA (mixed, 2'-OMe A/G/U, 2'-deoxy C, 3' idT) [ARC33165] | > 5 fold IC50 of ARC17480
GGAAUAUACUUGGCUCGUUUGGUGCGUAUAUA (mixed, 2'-OMe A/G/U, 2'-deoxy C, 3' idT) [ARC33168] | > 5 fold IC50 of ARC17480
GGAAUAUACUUGGCUCGUUAGUUGCGUAUAUA (mixed, 2'-OMe A/G/U, 2'-deoxy C, 3' idT) [ARC33170] | > 5 fold IC50 of ARC17480
GGAAUAUACUUGGCUCGUUAGGCGCGUAUAUA (mixed, 2'-OMe A/G/U and mC23, other C 2'-deoxy, 3' idT) [ARC33171] | > 5 fold IC50 of ARC17480
GGAAUAUACUUGGCUCGUUAGGUUCGUAUAUA (mixed, 2'-OMe A/G/U, 2'-deoxy C, 3' idT) [ARC33172] | > 5 fold IC50 of ARC17480
